The values below come from patent US20220380407A1.

Holding throughout (experiment): cell-based or functional assay
Experiment [1] concerns the target matriptase (#3946-SE-010, R&D Systems) (UniProt Q9Y5Y6).
In experiment [2] the target is recombinant thrombin (#1473-SE-010, R&D Systems) (UniProt P00734).
Experiment [3] has as its target Factor Xa (#1063-SE-010, R&D Systems) (UniProt P00742).
For a further experiment, the target named is human TMPRSS2 (human) (UniProt O15393).
Experiment [4] concerns the target activated hepsin (#4776-SE-010, R&D Systems) (UniProt P05981).
For experiment [5], the target named is recombinant N-terminal His-tag HGFA serine protease domain (UniProt Q04756).
For experiment [6], the target named is KLK5 (#1108-SE-010, R&D Systems) (UniProt Q9Y337).
KLK5 (#1108-SE-010, R&D Systems), sequence (Q9Y337 23-293 limits assumed): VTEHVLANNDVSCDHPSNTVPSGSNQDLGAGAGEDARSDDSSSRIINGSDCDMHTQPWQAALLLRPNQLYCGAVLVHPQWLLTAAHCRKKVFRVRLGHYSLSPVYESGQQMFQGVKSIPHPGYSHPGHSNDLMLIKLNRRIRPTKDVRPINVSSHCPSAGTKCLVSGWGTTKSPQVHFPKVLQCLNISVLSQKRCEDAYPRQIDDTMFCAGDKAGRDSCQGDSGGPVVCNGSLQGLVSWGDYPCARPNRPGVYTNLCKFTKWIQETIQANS

matriptase (#3946-SE-010, R&D Systems), sequence (Q9Y5Y6 615-855 limits assumed): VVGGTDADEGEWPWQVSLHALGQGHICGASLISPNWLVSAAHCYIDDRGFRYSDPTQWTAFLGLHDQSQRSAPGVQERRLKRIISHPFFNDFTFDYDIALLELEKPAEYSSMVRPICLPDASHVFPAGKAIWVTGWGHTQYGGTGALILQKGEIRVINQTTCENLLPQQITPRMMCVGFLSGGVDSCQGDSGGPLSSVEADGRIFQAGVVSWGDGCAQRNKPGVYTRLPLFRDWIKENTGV
activated hepsin (#4776-SE-010, R&D Systems), sequence (P05981 45-417 limits assumed): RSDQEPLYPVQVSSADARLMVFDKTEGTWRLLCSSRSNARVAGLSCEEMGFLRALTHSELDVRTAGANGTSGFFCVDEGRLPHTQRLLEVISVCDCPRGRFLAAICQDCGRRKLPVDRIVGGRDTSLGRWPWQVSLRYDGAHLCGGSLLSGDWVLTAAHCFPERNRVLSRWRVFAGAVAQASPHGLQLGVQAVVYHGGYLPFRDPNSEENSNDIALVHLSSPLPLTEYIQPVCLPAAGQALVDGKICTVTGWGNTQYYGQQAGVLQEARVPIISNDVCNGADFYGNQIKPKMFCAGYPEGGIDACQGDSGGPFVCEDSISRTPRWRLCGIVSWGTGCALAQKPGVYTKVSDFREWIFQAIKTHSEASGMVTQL
recombinant N-terminal His-tag HGFA serine protease domain, sequence (Q04756 373-655, form in doubt): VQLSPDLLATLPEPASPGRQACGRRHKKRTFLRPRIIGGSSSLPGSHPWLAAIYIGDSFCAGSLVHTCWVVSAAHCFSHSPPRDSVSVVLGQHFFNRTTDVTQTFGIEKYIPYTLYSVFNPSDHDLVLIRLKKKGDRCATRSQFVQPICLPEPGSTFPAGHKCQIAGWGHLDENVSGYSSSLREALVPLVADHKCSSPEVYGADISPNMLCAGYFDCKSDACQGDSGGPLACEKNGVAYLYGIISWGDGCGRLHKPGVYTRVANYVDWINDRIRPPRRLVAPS
Factor Xa (#1063-SE-010, R&D Systems), sequence (P00742 41-488 limits assumed): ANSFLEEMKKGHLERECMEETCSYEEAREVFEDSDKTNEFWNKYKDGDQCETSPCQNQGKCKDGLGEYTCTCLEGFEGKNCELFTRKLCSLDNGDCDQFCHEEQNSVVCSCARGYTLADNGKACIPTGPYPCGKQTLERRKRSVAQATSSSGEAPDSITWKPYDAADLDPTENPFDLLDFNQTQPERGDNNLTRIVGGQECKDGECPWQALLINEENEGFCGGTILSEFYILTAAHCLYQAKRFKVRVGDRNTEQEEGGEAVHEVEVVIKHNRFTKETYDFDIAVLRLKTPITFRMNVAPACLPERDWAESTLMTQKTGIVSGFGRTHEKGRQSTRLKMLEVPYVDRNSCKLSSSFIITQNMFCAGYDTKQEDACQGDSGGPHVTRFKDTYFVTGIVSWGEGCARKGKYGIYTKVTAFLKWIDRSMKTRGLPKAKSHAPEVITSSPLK
human TMPRSS2 (human), sequence (O15393 whole entry): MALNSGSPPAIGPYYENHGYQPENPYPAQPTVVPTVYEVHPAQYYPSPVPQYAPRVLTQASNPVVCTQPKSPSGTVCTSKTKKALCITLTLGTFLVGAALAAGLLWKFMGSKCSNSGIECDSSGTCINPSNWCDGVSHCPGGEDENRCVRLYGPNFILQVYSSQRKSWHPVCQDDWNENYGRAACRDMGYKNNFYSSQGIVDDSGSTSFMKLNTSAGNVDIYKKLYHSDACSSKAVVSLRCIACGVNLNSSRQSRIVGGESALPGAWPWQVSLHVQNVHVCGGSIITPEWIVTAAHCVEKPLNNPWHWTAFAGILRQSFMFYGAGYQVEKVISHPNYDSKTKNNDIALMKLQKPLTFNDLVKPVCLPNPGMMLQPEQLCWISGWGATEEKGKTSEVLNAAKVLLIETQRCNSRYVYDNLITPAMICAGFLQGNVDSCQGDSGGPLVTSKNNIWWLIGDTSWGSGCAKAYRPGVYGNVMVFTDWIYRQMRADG

In experiment [1], Cyclo(allylLY)R-kbt, VD4051 (peptide) came in with a Matriptase (IC50 nM) of 80.2 nM and a Matriptase IC50 of 0.014 µM. Also, in experiment [2], the Thrombin* (IC50 nM) was more than 20000 nM. The substance further came in with a Factor Xa* (IC50 nM) in experiment [3] of 8810 nM. The substance also gave a Calu-3 EC50 with human TMPRSS2 (human) of 0.565 µM. In experiment [4], this substance returned a Hepsin (IC50 nM) of 102 nM and a Hepsin IC50 of 0.02 µM. Also, in experiment [5], the HGFA (IC50 nM) is more than 20000 nM and the HGFA IC50 was more than 20 µM.

In experiment [6], Leupeptin (peptide) came in with a KLK5 IC50 of more than 20 µM.
